Laboratory results: patent publication US20190055322A1
Several values for one entry are separate records, joined by “and”; a condition that tells them apart may be missing. Identical values can stand only once.

B1: Nanobody 259 (1E11-40GS-5H01) (VHH)
chain: EVQLVESGGGLVQPGGSLRLSCAASGSTRSVNPMAWFRQAPGRQREWVATISRSGYATYADSVKGRFTISGDNAKSSVYLQMNSLKPEDTAVYYCVTGTYWGQGTLVTVSSGGGGSGGGGSGGGGSGGGGSGGGGSGGGGSGGGGSGGGGSEVQLVESGGGLVQPGGSLRLSCAASGSTLDYYAIGWFRQAPGKEREGVSCTSNSGSTYYGGSVKGRFTASRDNAKNTVYLQMNSLRPEDTAVYYCVATIGCATLGGTLDVQRYYYRGQGTLVTVSS
B2: Nanobody 275 (2G09-40GS-5H01) (VHH)
chain: EVQLVESGGGLVQPGGSLRLSCAASGSFGDNYELYAMTWFRQAPGERRDFVASVTGDGSTSYADSVKDRFTISRDNAKKLMYLQMNSLKPEDTAVYYCRLLNYWGQGTLVTVSSGGGGSGGGGSGGGGSGGGGSGGGGSGGGGSGGGGSGGGGSEVQLVESGGGLVQPGGSLRLSCAASGSTLDYYAIGWFRQAPGKEREGVSCTSNSGSTYYGGSVKGRFTASRDNAKNTVYLQMNSLRPEDTAVYYCVATIGCATLGGTLDVQRYYYRGQGTLVTVSS
B3: Nanobody 261 (5H01-40GS-2B10) (VHH)
chain: EVQLVESGGGLVQPGGSLRLSCAASGSTLDYYAIGWFRQAPGKEREGVSCTSNSGSTYYGGSVKGRFTASRDNAKNTVYLQMNSLRPEDTAVYYCVATIGCATLGGTLDVQRYYYRGQGTLVTVSSGGGGSGGGGSGGGGSGGGGSGGGGSGGGGSGGGGSGGGGSEVQLVESGGGLVQPGGSLRLSCAASGSIFSINNMGWYRQAPGKQRELVTVVTSNLITTYADSVKGRFTISRDNAKNTVYLQMNSLKPEDTAVYYCNAWARSVGSVPYSQFWGQGTLVTVSS
B4: Nanobody 319 (13F07-40GS-6B05) (VHH)
chain: EVQLVESGGGLVQAGGSLRLSCAASGNTFSTNPMYWYRQAEGKQRELVASISSRGITNYADSVRGRFSISRDNTKDTVYLQMNSLKPEDTAVYYCRLASLSSGTVYWGKGTLVTVSSGGGGSGGGGSGGGGSGGGGSGGGGSGGGGSGGGGSGGGGSEVQLVESGGGLVQPGGSLRLSCAASGSIFSINTMGWYRQAPGKQRELVSTITSNLVPHYADSVQGRFTISRDNARNTVYLQMNSLKPQDTAHYYCNAWARSSGATPYTNYWGQGTLVTVSS
B5: Nanobody 335 (5H01-40GS-1E11) (VHH)
chain: EVQLVESGGGLVQPGGSLRLSCAASGSTLDYYAIGWFRQAPGKEREGVSCTSNSGSTYYGGSVKGRFTASRDNAKNTVYLQMNSLRPEDTAVYYCVATIGCATLGGTLDVQRYYYRGQGTLVTVSSGGGGSGGGGSGGGGSGGGGSGGGGSGGGGSGGGGSGGGGSEVQLVESGGGLVQPGGSLRLSCAASGSTRSVNPMAWFRQAPGRQREWVATISRSGYATYADSVKGRFTISGDNAKSSVYLQMNSLKPEDTAVYYCVTGTYWGQGTLVTVSS
B6: Nanobody 285 (13F07-40GS-2B02) (VHH)
chain: EVQLVESGGGLVQAGGSLRLSCAASGNTFSTNPMYWYRQAEGKQRELVASISSRGITNYADSVRGRFSISRDNTKDTVYLQMNSLKPEDTAVYYCRLASLSSGTVYWGKGTLVTVSSGGGGSGGGGSGGGGSGGGGSGGGGSGGGGSGGGGSGGGGSEVQLVESGGGLVQPGDSLRLSCAASGRILSINNMVWYRQAPGKQRELVAHITSSGSTGYADSVKGRFTISRDNAKNTFYLQMTNLNPEDTAVYYCNCWVSSDSNAPLKNYWGQGTLVTVSS
B7: Nanobody 257 (13F07-40GS-2B10) (VHH)
chain: EVQLVESGGGLVQAGGSLRLSCAASGNTFSTNPMYWYRQAEGKQRELVASISSRGITNYADSVRGRFSISRDNTKDTVYLQMNSLKPEDTAVYYCRLASLSSGTVYWGKGTLVTVSSGGGGSGGGGSGGGGSGGGGSGGGGSGGGGSGGGGSGGGGSEVQLVESGGGLVQPGGSLRLSCAASGSIFSINNMGWYRQAPGKQRELVTVVTSNLITTYADSVKGRFTISRDNAKNTVYLQMNSLKPEDTAVYYCNAWARSVGSVPYSQFWGQGTLVTVSS
B8: Nanobody 277 (5H01-40GS-11B09) (VHH)
chain: EVQLVESGGGLVQPGGSLRLSCAASGSTLDYYAIGWFRQAPGKEREGVSCTSNSGSTYYGGSVKGRFTASRDNAKNTVYLQMNSLRPEDTAVYYCVATIGCATLGGTLDVQRYYYRGQGTLVTVSSGGGGSGGGGSGGGGSGGGGSGGGGSGGGGSGGGGSGGGGSEVQLVESGGGLVQAGGSLRLSCAASRLTFNHYNMGWFRQAPGKERERVAEVTWSGDKIYYVDSVKGRFTISRDNTPNPVYLYLQMNSLKPEDTAVYYCATAPRGLPYANGYWGQGTLVTVSS
B9: Nanobody 271 (7C10-40GS-14E10) (VHH)
chain: EVQLVESGGGLVQAGGSLRLSCTASGRTLSSYTMGWFRQAPGTEREFVAAMTRSGFNTYYADSVKGRFTISRDSTENTMALQMSSLKPEDTAVYYCTAGRGLTSYRADYWGQGTLVTVSSGGGGSGGGGSGGGGSGGGGSGGGGSGGGGSGGGGSGGGGSEVQLVESGGGLVQPGGSLRLSCAASGRIFSINTMGWYRQAPGKQRELVAGVTINAITNYADSVKGRFTISRDNAKNTVWLQMNSLKPEDTAVYYCHAWARSSGSAPYSQNWGQGTLVTVSS

Each binder was assayed against different PcrV variants and reference strain PAO1 (23 PcrV sequence variants, GST-PcrV-His6).

Row | Binder | EC50
1 | B1 | 0.01 nM and 0.02 nM
2 | B2 | 0.6 nM and 0.9 nM
3 | B3 | 0.06 nM and 0.07 nM
4 | B4 | 0.08 nM and 0.1 nM
5 | B5 | 0.07 nM and 0.09 nM
6 | B6 | 0.1 nM
7 | B7 | 0.07 nM and 0.09 nM
8 | B8 | 0.07 nM and 0.1 nM
9 | B9 | 0.06 nM and 0.1 nM
